# Positions count from the first letter of the chain named.
# T1: Human VEGFR-3 extracellular domain (amino acids 25-329), AviTag, hexahistidine tag, biotinylated (human, UniProt P35916 25-329, biotinylated with BirA ligase (AviTag))
# T1 chain (part 1 of 2): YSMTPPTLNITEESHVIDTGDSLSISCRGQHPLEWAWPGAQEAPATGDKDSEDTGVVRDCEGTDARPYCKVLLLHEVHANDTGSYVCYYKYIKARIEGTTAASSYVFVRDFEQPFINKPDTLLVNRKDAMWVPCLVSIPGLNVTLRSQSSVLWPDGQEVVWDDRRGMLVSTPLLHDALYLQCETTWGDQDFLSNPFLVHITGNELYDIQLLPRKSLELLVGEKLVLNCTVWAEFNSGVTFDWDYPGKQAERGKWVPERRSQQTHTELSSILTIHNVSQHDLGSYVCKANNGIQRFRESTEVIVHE
# T1 chain (part 2 of 2): HHHHHH
# B1: Clone 15 (protein)
# chain: NTEILKSIDNEWRKTQCMPREVAIDVGKEFGVATNTFFKPPCVSVYRCGGCCISEGLQCMNTSTSYLSKTLFEITVPISQGPKPVTISFANHTSCRCMSKL
# B2: Clone 19 (protein)
# chain: B1 chain with I53N, S54G, I78L
# B3: Clone 21 (protein)
# chain: B1 chain with I53N, S54G
# B4: Clone 7 (protein)
# chain: B1 chain with I53Q, I78L
# B5: Clone 13 (protein)
# chain: B1 chain with I78L
# B6: Clone 9 (protein)
# chain: B1 chain with I53Q
# B7: Clone 39 (protein)
# chain: B1 chain with S54R, I78L
# B8: WT VEGFC (protein)
# chain: B1 chain with A23C, I53N, I78L
# B9: Clone 31 (protein)
# chain: B1 chain with I53H, I78L
# B10: Clone 10 (protein)
# chain: B1 chain with I53Q, S54G
# B11: Clone 8 (protein)
# chain: B1 chain with I53Q, S54G, I78L
# B12: Clone 14 (protein)
# chain: B1 chain with S54G, I78L
# B13: Clone 16 (protein)
# chain: B1 chain with S54G
# B14: WT (ligand)
# chain: B1 chain with A23C, V32A, I53N, S65G, I78L
# Target: T1, Human VEGFR-3 extracellular domain …
# Experiment: yeast display flow cytometry binding
row,EC50 [nM],Binder
1,21.5,B1
2,51.3,B2
3,44.8,B3
4,71,B4
5,32.3,B5
6,65.7,B6
7,104,B7
8,34.8,B8
9,94.5,B9
10,65.5,B10
11,124,B11
12,74.5,B12
13,36.8,B13

# Target: VEGFR3
# Experiment: SPR
row,Kd [nM],Binder
1,0.0107,B14

# Target: VEGFR2
# Experiment: SPR
row,Kd [nM],Binder
1,0.227,B14
